Results on 22 molecules are retold here after publication PMC3711439, “Mechanisms of in vivo binding site selection of the hematopoietic master transcription factor PU.1”.

To fix the notation:
B1: PU.1 motif oligo 62 (dsDNA)
DNA 1: ACGTCTCTTCCTCCCTACGT
DNA 2: ACGTAGGGAGGAAGAGACGT
B2: PU.1 motif oligo 63 (dsDNA)
DNA 1: ACGTCACTTCCACAGTACGT
DNA 2: ACGTACTGTGGAAGTGACGT
B3: PU.1 motif oligo 60 (dsDNA)
DNA 1: ACGTCGCTTCCTTCCTACGT
DNA 2: ACGTAGGAAGGAAGCGACGT
B4: PU.1 motif oligo 72 (dsDNA)
DNA 1: ACGTAATTTCCTCATCACGT
DNA 2: ACGTGATGAGGAAATTACGT
B5: PU.1 motif oligo 65 (dsDNA)
DNA 1: ACGTTTCTTCCTCTTCACGT
DNA 2: ACGTGAAGAGGAAGAAACGT
B6: PU.1 motif oligo 58 (dsDNA)
DNA 1: ACGTCACTTCCCCAGGACGT
DNA 2: ACGTCCTGGGGAAGTGACGT
B7: PU.1 motif oligo 70 (dsDNA)
DNA 1: ACGTATCTTCCTCACTACGT
DNA 2: ACGTAGTGAGGAAGATACGT
B8: PU.1 motif oligo 10 (dsDNA)
DNA 1: ACGTCACTTCCTGTTTACGT
DNA 2: ACGTAAACAGGAAGTGACGT
B9: PU.1 motif oligo 8 (dsDNA)
DNA 1: ACGTCACTTCCCCTTAACGT
DNA 2: ACGTTAAGGGGAAGTGACGT
B10: PU.1 motif oligo 9 (dsDNA)
DNA 1: ACGTCACTTCCTCTCAACGT
DNA 2: ACGTTGAGAGGAAGTGACGT
B11: PU.1 motif oligo 7 (dsDNA)
DNA 1: ACGTCAGTTCCTCTTTACGT
DNA 2: ACGTAAAGAGGAACTGACGT
B12: PU.1 motif oligo 69 (dsDNA)
DNA 1: ACGTCAGTTCTGCTTTACGT
DNA 2: ACGTAAAGCAGAACTGACGT
B13: PU.1 motif oligo 67 (dsDNA)
DNA 1: ACGTGACTTCCTTCACACGT
DNA 2: ACGTGTGAAGGAAGTCACGT
B14: PU.1 motif oligo 61 (dsDNA)
DNA 1: ACGTATCTTCCTCATAACGT
DNA 2: ACGTTATGAGGAAGATACGT
B15: PU.1 motif oligo 73 (dsDNA)
DNA 1: ACGTAACTTCTTCAAAACGT
DNA 2: ACGTTTTGAAGAAGTTACGT
B16: PU.1 motif oligo 75 (dsDNA)
DNA 1: ACGTCAGTTCTGCATTACGT
DNA 2: ACGTAATGCAGAACTGACGT
B17: PU.1 motif oligo 66 (dsDNA)
DNA 1: ACGTCAGTTCTCTTTTACGT
DNA 2: ACGTAAAAGAGAACTGACGT
B18: PU.1 motif oligo 64 (dsDNA)
DNA 1: ACGTGACTTCCACAATACGT
DNA 2: ACGTATTGTGGAAGTCACGT
B19: PU.1 motif oligo 59 (dsDNA)
DNA 1: ACGTAACTTCTTCCTTACGT
DNA 2: ACGTAAGGAAGAAGTTACGT
B20: PU.1 motif oligo 74 (dsDNA)
DNA 1: ACGTCTCTTCCTTAAAACGT
DNA 2: ACGTTTTAAGGAAGAGACGT
B21: PU.1 motif oligo 68 (dsDNA)
DNA 1: ACGTGACTTCTGCTTTACGT
DNA 2: ACGTAAAGCAGAAGTCACGT
B22: PU.1 motif oligo 71 (dsDNA)
DNA 1: ACGTTGCTTCCTCCCTACGT
DNA 2: ACGTAGGGAGGAAGCAACGT

The data set has as its target PU.1 (human, UniProt P17947 1-270). The experiment in a line: MST; MST: 20 mM Tris-HCl pH 7.6, 1.5 mM MgCl2, 0.5 mM EGTA, 10% glycerol, 300 mM KCl, 10 mM DTT, 25 C; 50 nM Cy3-dsDNA, PU.1 1:1 dilutions from 23 uM. Particulars: protein: recombinant; tags: N-terminal His-tag; label: Cy3 on upper strand.
Regarding B1, the Kd was 1940 ± 1260 nM.
The figure for B2 is 1930 ± 220 nM; for B3 it is 1895 ± 10 nM; for B4 it is 1080 ± 251 nM.
The figure for B5 is 872 ± 57 nM; for B6 it is 1070 ± 229 nM; for B7 it is 2020 ± 100 nM.
The same measure for B8: 175 ± 16 nM; for B9: 441 ± 18 nM; for B10: 676 ± 67 nM.
Consider B11, for which the equilibrium dissociation constant (Kd) came out at 222 ± 45 nM.
Regarding B12, the dissociation constant (Kd) is 909 ± 28 nM.
On to B13, for which the equilibrium dissociation constant (Kd) was 1240 ± 370 nM.
The figure for B14 is 790 ± 77 nM.
The same measure for B15: 1520 ± 580 nM.
The figure for B16 is 1190 ± 140 nM.
Take B17: the equilibrium dissociation constant (Kd) worked out at 2000 ± 40 nM.
The same measure for B18: 1220 ± 350 nM.
The figure for B19 is 1620 ± 20 nM.
The figure for B20 is 1150 nM; for B21 it is 828 ± 51 nM.
Consider B22, for which the Kd was 2200 ± 1640 nM.
